Assay results as given in paper PMC12772324.

Target: T1, HutC (Pseudomonas aeruginosa PAO1) (UniProt Q9HU78)
T1 sequence: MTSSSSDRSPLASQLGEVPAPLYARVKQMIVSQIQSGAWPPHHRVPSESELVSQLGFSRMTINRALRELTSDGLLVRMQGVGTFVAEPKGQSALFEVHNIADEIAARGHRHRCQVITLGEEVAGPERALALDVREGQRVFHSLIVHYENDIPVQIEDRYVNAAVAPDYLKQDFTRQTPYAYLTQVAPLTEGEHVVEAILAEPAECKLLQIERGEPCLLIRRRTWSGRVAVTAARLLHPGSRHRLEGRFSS
Test: EMSA
Conditions: 10 mM Tris-HCl pH 7.5, 100 mM NaCl, 1 mM DTT, 3 ng/uL sheared salmon sperm DNA, 1% glycerol, 2 ng/uL probe, 20 min at room temperature; 6% native gel, 0.5x TBE

Q: “ACGGCGGCCTGAGCCGCCGGCCAATAACAATGATCGAGGCCGTTCCCCCGGGCGCGGCCCGCAGGTTTTCCAACTGCCTTTCCCAATCGTGCATCTGGAGCGTCGAACC (double strand) [hutG -108 to -1]” was tested. Which binding did it give?
A: binds
